B1: WEE1 (parent)
chain: FLGSSFSPVRCGGPGDASPRGCGA

Variants of: B1
Test: protein stability index of a GFP-peptide fusion (GPS, HEK-293T) (PSI 1-6); higher = more stable
Details: c terminus: a fixed tail appended
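Also: lentivirally expressed fusions sorted by FACS into six bins by GFP to DsRed ratio, PSI derived from sequencing read proportions per bin multiplied by bin number.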

| Variant | protein stability index |
| --- | --- |
| FLGSSFSFVRCGGPGDASPRGCGA [P8F] | 2.49 |
| FLGSSFSEVRCGGPGDASPRGCGA [P8E] | 2.23 |
| FLGSSFSAVRCGGPGDASPRGCGA [P8A] | 1.38 |
| FLGSSFSDVRCGGPGDASPRGCGA [P8D] | 1.97 |
| FLGSQFSPVRCGGPGDASPRGCGA [S5Q] | 1.58 |
| FLGSIFSPVRCGGPGDASPRGCGA [S5I] | 1.92 |
| FLGSHFSPVRCGGPGDASPRGCGA [S5H] | 1.73 |
| FLGSGFSPVRCGGPGDASPRGCGA [S5G] | 1.91 |
| FLGSMFSPVRCGGPGDASPRGCGA [S5M] | 2.27 |
| FLGSPFSPVRCGGPGDASPRGCGA [S5P] | 2.17 |
| FLGSEFSPVRCGGPGDASPRGCGA [S5E] | 1.52 |
| FLGSVFSPVRCGGPGDASPRGCGA [S5V] | 1.39 |
| FLGSNFSPVRCGGPGDASPRGCGA [S5N] | 1.92 |
| FLGSLFSPVRCGGPGDASPRGCGA [S5L] | 2.13 |
| FLGSTFSPVRCGGPGDASPRGCGA [S5T] | 1.59 |
| FLGSYFSPVRCGGPGDASPRGCGA [S5Y] | 2.51 |
| FLGSAFSPVRCGGPGDASPRGCGA [S5A] | 1.98 |
| FLGSFFSPVRCGGPGDASPRGCGA [S5F] | 4.63 |
| FLGSKFSPVRCGGPGDASPRGCGA [S5K] | 1.8 |
| FLGSRFSPVRCGGPGDASPRGCGA [S5R] | 1.63 |
| FLGSDFSPVRCGGPGDASPRGCGA [S5D] | 2.37 |
| FLLSSFSPVRCGGPGDASPRGCGA [G3L] | 1.65 |
| FLHSSFSPVRCGGPGDASPRGCGA [G3H] | 2.85 |
| FLMSSFSPVRCGGPGDASPRGCGA [G3M] | 1.68 |

| Variant | protein stability index |
| --- | --- |
| FLVSSFSPVRCGGPGDASPRGCGA [G3V] | 2.51 |
| FLASSFSPVRCGGPGDASPRGCGA [G3A] | 2.19 |
| FLSSSFSPVRCGGPGDASPRGCGA [G3S] | 1.92 |
| FLKSSFSPVRCGGPGDASPRGCGA [G3K] | 2.16 |
| FLWSSFSPVRCGGPGDASPRGCGA [G3W] | 2.79 |
| FLPSSFSPVRCGGPGDASPRGCGA [G3P] | 2.12 |
| FLTSSFSPVRCGGPGDASPRGCGA [G3T] | 1.48 |
| FLCSSFSPVRCGGPGDASPRGCGA [G3C] | 1.91 |
| FLDSSFSPVRCGGPGDASPRGCGA [G3D] | 2.02 |
| FLNSSFSPVRCGGPGDASPRGCGA [G3N] | 1.32 |
| FLYSSFSPVRCGGPGDASPRGCGA [G3Y] | 1.91 |
| FLESSFSPVRCGGPGDASPRGCGA [G3E] | 2.58 |
| FLQSSFSPVRCGGPGDASPRGCGA [G3Q] | 2.33 |
| FLFSSFSPVRCGGPGDASPRGCGA [G3F] | 2.67 |
| FLISSFSPVRCGGPGDASPRGCGA [G3I] | 2.82 |
| FLRSSFSPVRCGGPGDASPRGCGA [G3R] | 2.34 |
| FLGTSFSPVRCGGPGDASPRGCGA [S4T] | 1.56 |
| FLGYSFSPVRCGGPGDASPRGCGA [S4Y] | 1.75 |
| FLGQSFSPVRCGGPGDASPRGCGA [S4Q] | 1.86 |
| FLGCSFSPVRCGGPGDASPRGCGA [S4C] | 2.19 |
| FLGFSFSPVRCGGPGDASPRGCGA [S4F] | 1.93 |
| FLGMSFSPVRCGGPGDASPRGCGA [S4M] | 2.06 |
| FLGVSFSPVRCGGPGDASPRGCGA [S4V] | 1.46 |
| FLGKSFSPVRCGGPGDASPRGCGA [S4K] | 2.34 |

| Variant | protein stability index |
| --- | --- |
| FLGLSFSPVRCGGPGDASPRGCGA [S4L] | 1.48 |
| FLGRSFSPVRCGGPGDASPRGCGA [S4R] | 1.69 |
| FLGESFSPVRCGGPGDASPRGCGA [S4E] | 2.65 |
| FLGGSFSPVRCGGPGDASPRGCGA [S4G] | 2.16 |
| FLGISFSPVRCGGPGDASPRGCGA [S4I] | 2.49 |
| FLGNSFSPVRCGGPGDASPRGCGA [S4N] | 2.07 |
| FLGHSFSPVRCGGPGDASPRGCGA [S4H] | 1.24 |
| FLGASFSPVRCGGPGDASPRGCGA [S4A] | 1.79 |
| FLGDSFSPVRCGGPGDASPRGCGA [S4D] | 2.39 |
| FLGPSFSPVRCGGPGDASPRGCGA [S4P] | 1.82 |
| FLGSSFEPVRCGGPGDASPRGCGA [S7E] | 2.5 |
| FLGSSFNPVRCGGPGDASPRGCGA [S7N] | 2.22 |
| FLGSSFVPVRCGGPGDASPRGCGA [S7V] | 1.03 |
| FLGSSFGPVRCGGPGDASPRGCGA [S7G] | 2.73 |
| FLGSSFTPVRCGGPGDASPRGCGA [S7T] | 2.9 |
| FLGSSFLPVRCGGPGDASPRGCGA [S7L] | 1.48 |
| FLGSSFKPVRCGGPGDASPRGCGA [S7K] | 2.47 |
| FLGSSFDPVRCGGPGDASPRGCGA [S7D] | 3.47 |
| FLGSSFCPVRCGGPGDASPRGCGA [S7C] | 2.41 |
| FLGSSFMPVRCGGPGDASPRGCGA [S7M] | 2.48 |
| FLGSSFRPVRCGGPGDASPRGCGA [S7R] | 2.38 |
| FLGSSFQPVRCGGPGDASPRGCGA [S7Q] | 1.93 |
| FLGSSFFPVRCGGPGDASPRGCGA [S7F] | 1.12 |
| FLGSSFPPVRCGGPGDASPRGCGA [S7P] | 1.36 |

| Variant | protein stability index |
| --- | --- |
| FLGSSFHPVRCGGPGDASPRGCGA [S7H] | 1.81 |
| FLGSSFYPVRCGGPGDASPRGCGA [S7Y] | 2.16 |
| FLGSSFAPVRCGGPGDASPRGCGA [S7A] | 1.4 |
| FLGSSFIPVRCGGPGDASPRGCGA [S7I] | 2.34 |
| FLGSSNSPVRCGGPGDASPRGCGA [F6N] | 3.06 |
| FLGSSPSPVRCGGPGDASPRGCGA [F6P] | 3.52 |
| FLGSSYSPVRCGGPGDASPRGCGA [F6Y] | 1.81 |
| FLGSSASPVRCGGPGDASPRGCGA [F6A] | 2.17 |
| FLGSSGSPVRCGGPGDASPRGCGA [F6G] | 3.36 |
| FLGSSVSPVRCGGPGDASPRGCGA [F6V] | 2.15 |
| FLGSSKSPVRCGGPGDASPRGCGA [F6K] | 3 |
| FLGSSDSPVRCGGPGDASPRGCGA [F6D] | 3.42 |
| FLGSSHSPVRCGGPGDASPRGCGA [F6H] | 2.48 |
| FLGSSQSPVRCGGPGDASPRGCGA [F6Q] | 3.41 |
| FLGSSRSPVRCGGPGDASPRGCGA [F6R] | 2.95 |
| FLGSSSSPVRCGGPGDASPRGCGA [F6S] | 2.87 |
| FLGSSESPVRCGGPGDASPRGCGA [F6E] | 3.91 |
| FLGSSLSPVRCGGPGDASPRGCGA [F6L] | 2.84 |
| FLGSSMSPVRCGGPGDASPRGCGA [F6M] | 3.29 |
| FLGSSTSPVRCGGPGDASPRGCGA [F6T] | 2.76 |
| FLGSSCSPVRCGGPGDASPRGCGA [F6C] | 3.15 |
| FLGSSISPVRCGGPGDASPRGCGA [F6I] | 3.26 |
